Columns and labels:
[1] = molecular target: T1, human IL-13 (recombinant E. coli-expressed) (human, UniProt P35225 35-146); test: cell-based or functional assay
[2] = molecular target: T1, human IL-13 (recombinant E. …); test: cell-based or functional assay; remark: listed apart in the source
[3] = molecular target: T1, human IL-13 (recombinant E. …); test: Biacore T100 SPR, mAb captured on anti-human IgG, IL13 analyte
Protocol: (§1) Table 1 details the overall affinities (equilibrium dissociation constant KD) for the selected constructs from the ProteOn screen and the T100 run
In light of this, mutations at this residue that were not present in the initial screen were tested using the ProteOn using the same method as described earlier and again using antibodies direct from tissue culture supernatants.

[4] = molecular target: T1, human IL-13 (recombinant E. …); test: ProteOn XPR36 SPR, mAb captured on anti-human IgG, IL13 analyte
Protocol: (§2) The initial screen of CDRH3 mutants was carried out on the ProteOn XPR36 (Biorad). […] 3M MgCl₂ was used to regenerate the capture surface, removing the bound CDRH3 mutant antibodies ready for another cycle of capture and analyte injection. The data was fitted to the 1:1 model using the software inherent to the machine.

[5] = molecular target: T1, human IL-13 (recombinant E. …); test: Biacore T100 SPR, mAb captured on anti-human IgG, IL13 analyte, 1:1 fit
Source text: as §1

[6] = molecular target: T1, human IL-13 (recombinant E. …); test: Biacore T100 SPR, purified mAb captured on anti-human IgG, IL13 analyte, 1:1 fit
Source text: as §1

[7] = molecular target: T1, human IL-13 (recombinant E. …); test: as above; remark: listed apart in the source
Source text: as §1

[8] = molecular target: T1, human IL-13 (recombinant E. …); test: ProteOn XPR36 SPR, purified mAb captured on anti-human IgG, IL13 analyte, 1:1 fit; range over several runs
Protocol: as §2

T1 sequence (P35225 other isoform, or with tags, fused parts or gaps limits assumed): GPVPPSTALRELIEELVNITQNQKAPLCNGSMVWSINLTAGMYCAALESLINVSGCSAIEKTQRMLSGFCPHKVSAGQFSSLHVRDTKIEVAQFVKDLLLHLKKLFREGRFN

- ND50 (nM), TF-1 cell proliferation bioassay [1]: 9.77 nM
- Mean ND50 value (nM), TF-1 cell proliferation bioassay [2]: 5.01 nM
- Kd [3]: 0.346 nM
- Kd [4]: 0.39 to 0.46 nM
- Kd [5]: 0.36 nM
- koff [5]: 0.000456 s⁻¹
- kon [5]: 1.27e+06 M⁻¹ s⁻¹
- Kd [6]: 0.366 nM
- Kd [7]: 0.326 nM
- koff [7]: 0.000368 s⁻¹
- kon [7]: 1.13e+06 M⁻¹ s⁻¹
- Kd [8]: 0.45 to 0.6 nM
B1: A1L1 (antibody, human IgG1, kappa, V domains shown)
VH: QVQLVQSGAEVKKPGSSVKVSCKASGFYIKDTYMHWVRQAPGQGLEWMGTIDPANGNTKYVPKFQGRVTITADESTSTAYMELSSLRSEDTAVYYCARSIYDDYHYDDYYAMDYWGQGTLVTVSS
VL: DIVMTQSPLSLPVTPGEPASISCRSSQNIVHINGNTYLEWYLQKPGQSPRLLIYKISDRFSGVPDRFSGSGSGTDFTLKISRVEADDVGIYYCFQGSHVPWTFGQGTKLEIKR
notes: Humanised version of murine 6A1, human IgG1 kappa; also called parental; 586 (mAb)

— patent US20120082682A1 (GlaxoSmithKline, published 2012)
